Results as given in patent US20190056395.

Molecular target: T1, MSP-MS library tetradecapeptide KWLIHPTFSYnRWP
T1 chain: KWLIHPTFSYNRWP

B1: recombinant mature Sap5 (secreted aspartyl protease 5) from Candida albicans, expressed in Pichia pastoris (protein)
chain: GPVAVTLHNEAITYTADITVGSDNQKLNVIVDTGSSDLWIPDSNVICIPKWRGDKGDFCKSAGSYSPASSRTSQNLNTRFDIKYGDGSYAKGKLYKDTVGIGGVSVRDQLFANVWSTSARKGILGIGFQSGEATEFDYDNLPISLRNQGIIGKAAYSLYLNSAEASTGQIIFGGIDKAKYSGSLVDLPITSEKKLTVGLRSVNVRGRNVDANTNVLLDSGTTISYFTRSIVRNILYAIGAQMKFDSAGNKVYVADCKTSGTIDFQFGNNLKISVPVSEFLFQTYYTSGKPFPKCEVRIRESEDNILGDNFLRSAYVVYNLDDKKISMAPVKYTSESDIVAIN
kcat/Km (mass spectrometry-based cleavage time course): 4.4×10^4 M^-1 s^-1 (Sap5)

B2: recombinant mature Sap6 (secreted aspartyl protease 6) from Candida albicans, expressed in Pichia pastoris (protein)
chain: GPVAVKLDNEIITYSADITVGSNNQKLSVIVDTGSSDLWIPDSKAICIPKWRGDCGDFCKNNGSYSPAASSTSKNLNTRFEIKYADGSYAKGNLYQDTVGIGGASVKNQLFANVWSTSAHKGILGIGFQTNEATRTPYDNLPISLKKQGIIAKNAYSLFLNSPEASSGQIIFGGIDKAKYSGSLVELPITSDRTLSVGLRSVNVMGRNVNVNAGVLLDSGTTISYFTPSIARSIIYALGGQVHFDSAGNKAYVADCKTSGTVDFQFDKNLKISVPASEFLYQLYYTNGKPYPKCEIRVRESEDNILGDNFMRSAYIVYDLDDKKISMAQVKYTSESNIVAIN
kcat/Km (mass spectrometry-based cleavage time course): 2.0×10^5 M^-1 s^-1 (Sap6)
